Results on one molecule are retold here after patent publication US20040265809A1 (published 2004).

The assay has as its target T1, rat RORβ ligand-binding domain (RORβ-LBD), residues 201-452, polyhistidine-tagged (rat, UniProt P45446 212-463).
T1 construct: Expressed in E. coli; The ligand pocket holds stearic acid (first crystal) or all-trans retinoic acid (second crystal); One monomer per asymmetric unit; also called rRORβ-LBD; RORbeta LBD; not shown: N-terminal polyhistidine tag and thrombin cleavage site from the pet15b vector (Novagen); the tagge
T1 sequence: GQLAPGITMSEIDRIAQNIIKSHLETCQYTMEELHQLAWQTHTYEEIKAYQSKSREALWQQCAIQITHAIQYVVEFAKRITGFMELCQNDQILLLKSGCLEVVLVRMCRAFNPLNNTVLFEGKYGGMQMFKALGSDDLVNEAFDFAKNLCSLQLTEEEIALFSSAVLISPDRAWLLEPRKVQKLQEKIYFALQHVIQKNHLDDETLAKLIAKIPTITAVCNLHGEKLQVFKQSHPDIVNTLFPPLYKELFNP
In words: co-crystallisation, hanging drop, stearate complex. As to the method: The RORβ-LBD stearate complex was crystallized at 22° C. by vapor diffusion in the hanging-drop mode. In the crystallisation trials, the protein was used without further purification and co-crystallized with a 3-molar excess of SRC-1⁶⁸⁶⁻⁷⁰⁰([…]) NR-interacting peptide co-activator sequence. Addition of the peptide was crucial to obtain crystals. In the initial trial to obtain crystallization conditions, a sparse matrix crystallization screen was done with a home screen. For each crystallization trial, a 4 μl drop was prepared by mixing 2 μl of purified protein (5.8 mg/ml) with an equal volume of reservoir solution. The reservoir contained 500 μl of the precipitating solution. A crystal measuring […] at 22° C. in PEG 6000 15% and 100 mM Tris HCl at pH=8.0 grew within about 2 weeks. This crystal was used in a first data collection run (as described below).

Consider RHKILHRLLQEGSPS (also called SRC1 peptide) [SRC-1 686-700 NR-interacting co-activator peptide], for which the binding result is “binds”.
